These results are taken from patent US6875594B2, “Methods of ligating expressed proteins” (The Rockefeller University, priority 1997, dated 2005).

Data set [1] deals with T1, poly(glu,tyr) (Homo sapiens, UniProt P41240).
T1 construct: N-terminal methionine residue in the protein produced as an intein-CBD fusion was completely removed (no such cleavage is observed); Tyr unphosphorylated in Csk^PEP, phosphorylated in Csk^pPEP; made in house; host or cells: E. coli DH5α, co-expressed with GroES/GroEL
Particulars: wild type Csk, reference (32), cited from earlier work.

Data set [2] deals with poly(glu,tyr). As to the kind of experiment: Csk kinase assay, transfer of 32P from γ-32P-ATP to poly(glu,tyr). In kind it is biochemical. The protocol: In each of the two ligation reactions, the crude product mixture was nearly free of unligated material, although both preparations were contaminated with GroEL and DnaK. Although yields were not optimized, an estimated 0.5 mg of ligation product per 2.5 L bacterial cell culture was produced. […] Kinase assays were performed as described by Cole et al., J. Biol. Chem. 269, 30880 (1994) where transfer of ^32P from γ-^32P-ATP to poly(glu,tyr) was monitored. Briefly, poly(glu,tyr) reactions were carried out in 60 mM Tris-HCl, pH 7.4, 2 mM MnCl2, 10 mM dithiothreitol, 200 μg/mL BSA for 2 minutes at 30° C., quenched with EDTA, run out on 10% SDSPAGE and phosphopoly(glu,tyr) analyzed by scintillation counting. […] Further characterization of (Csk^PEP) and (Csk^pPEP) by electrospray mass spectrometry gave molecular masses in good agreement with the predicted values (FIG. 2C).

For data set [3], the target named is T2, consolidated ligand NH2-PVpYENVG6>(PPAYPPPPVPKCONH2) (Homo sapiens, UniProt P00519, C100A/N120G/S121C).
T2 construct: intein-CBD (on the SH3 segment, removed on thioester formation) (C, cleaved yes); GST-SH3-IEGR (upstream of the SH2 segment, removed by thrombin and Factor Xa) (N, cleaved yes); made in house; host or cells: E. coli (BL21 for SH3-intein-CBD, DH5-α for the GST fusion that gives SH2)
Briefly: Fluorescence-based titration binding assay. To be noted: consolidated ligand binding both SH3 and SH2 domains; read-out: equilibration dissociation constant (Kd) for binding to the ligand. From the text: Under these conditions, no protein precipitation was observed and NMR analysis indicated the sample had adopted a native fold. A similar strategy was therefore used to prepare the complete [SH2-^15N]SH(32) construct for functional and structural analysis. The binding affinity of Abl-[SH2^15N]SH(32) for the consolidated ligand, NH2-PVpYENVG6>(PPAYPPPPVPKCONH2) (SEQ ID NOs: 5 and 6, respectively), which binds both the SH3 and the SH2 domains simultaneously (78) was studied using a fluorescence-based titration assay. (The C-terminal glycyl residue is linked to the N ε of lysyl in the second peptide segment). […] This affinity is characteristic of the dual domain construct.
Fluorescence Binding Assay: The equilibrium dissociation constants of the protein constructs for the consolidated ligand were determined using the previously describedfluorescence-based titration assay (78). The binding constant for the segment labeled construct was 300 (±100) nM. Experiments were performed on a Spex Fluorolog-3 spectrophotometer fitted with a Neslab temperature control unit.

B1: wild type Csk: Full-length wild-type human C-terminal Src kinase, 50 kDa protein (protein, UniProt P41240 1-450, looked up)
chain: MSAIQAAWPSGTECIAKYNFHGTAEQDLPFCKGDVLTIVAVTKDPNWYKAKNKVGREGIIPANYVQKREGVKAGTKLSLMPWFHGKITREQAERLLYPPETGLFLVRESTNYPGDYTLCVSCDGKVEHYRIMYHASKLSIDEEVYFENLMQLVEHYTSDADGLCTRLIKPKVMEGTVAAQDEFYRSGWALNMKELKLLQTIGKGEFGDVMLGDYRGNKVAVKCIKNDATAQAFLAEASVMTQLRHSNLVQLLGVIVEEKGGLYIVTEYMAKGSLVDYLRSRGRSVLGGDCLLKFSLDVCEAMEYLEGNNFVHRDLAARNVLVSEDNVAKVSDFGLTKEASSTQDTGKLPVKWTAPEALREKKFSTKSDVWSFGILLWEIYSFGRVPYPRIPLKDVVPRVEKGYKMDAPDGCPPAVYEVMKNCWHLDAAMRPSFLQLREQLEHIKTHELHL
modifications: full-length
notes: Full-length wild-type human C-terminal Src kinase, 50 kDa protein
As usually defined, the kcat is the maximal rate divided by the concentration of active sites. A word on the Km: it is the concentration of substrate that gives half-maximal velocity. B1: in data set [1], the “Km of poly(glu,tyr)” value was 48 ± 2 µg/mL and the catalytic constant (kcat) was 0.667 ± 0.083 s⁻¹. In addition, in data set [1] (read-out: Km of ATP), the Km is 12 ± 1 µM. Moreover, in data set [2], the “catalytic activity (kinase assay)” value is “fully active”.

B2: Abl-[SH2^15N]SH(32): Ligated human Abl SH3-SH2 domain pair with G120 C121 mutations, only the SH2 domain 15N labeled (SEQ ID NO: 1) (protein)
chain: MLFVALYDFVASGDNTLSITKGEKLRVLGYNHNGEWAEAQTKNGQGWVPSNYITPVGCLEKHSWYHGPVSRNAAEYLLSSGINGSFLVRESESSPGQRSISLRYEGRVYHYRINTASDGKLYVSSESRFNTLAELVHHHSTVADGLITTLHYPAPKRGIHRD
modifications: 15N label on SH2 domain
On to B2, for which the Kd in data set [3] came to 0.3 µM.
